Legend:
[1] = molecular target: 268//NRE (six-finger fusion, Zif268 fingers - longer linker - NRE fingers) (synthetic) (UniProt P08046); assay: EMSA; conditions: room temp
[2] = molecular target: NRE peptide (three-finger Zif268 variant selected by phage display) (synthetic) (UniProt P08046); assay: EMSA
[3] = molecular target: 268//NRE (six-finger fusion, longer linker) (synthetic) (UniProt P08046); assay: cell_activity; conditions: VP16-activated transcription, 293 cells
[4] = molecular target: 268/NRE (six-finger fusion, shorter linker RQKDGERP) (synthetic) (UniProt P08046); assay: cell_activity; conditions: 293 cells
[5] = molecular target: Zif268 and NRE peptides co-expressed as separate chains (synthetic) (UniProt P08046+P08046); assay: cell_activity; conditions: co-expression of unlinked peptides; 293 cells
[6] = molecular target: NRE peptide (three-finger Zif268 variant) (synthetic) (UniProt P08046); assay: cell_activity; conditions: 293 cells

For “TCTGCAAGGGTTCAGGCGACACCAACCAA (double strand) [N site]”, the Kd [1] was 190 pM.

In the case of “TCTGCAAGGGTTCAGGCGTGGGCGGTAAG (double strand) [N/Z site]”, the Kd ([1]; calculated from koff/kon, direct titration <1.0 pM, p113 states 3.8 fM) is reported as 0.0037 pM and the Kd ([2]; room temp) is reported as 180 pM.

With “AAGGGTTCAGGCGTGGGCG (double strand) [N/Z site in luciferase reporter promoter]” the activity (fold repression) [3] was 72, the activity (fold repression) [4] was 68 and the activity (fold repression) [5] was 8.5. The activity (fold repression) [6] was 1.8.

“AAGGGTTCAGTGCGTGGGCG (double strand) [N//Z site in luciferase reporter promoter]” gave an activity (fold repression) [3] of 47, an activity (fold repression) ([4]; linker modelled too short for all six fingers to bind) of 22 and an activity (fold repression) [6] of 2.7.

With “GTGTGTGTGTGATCTGCGTGGGCGGTAAG (double strand) [Z site]” the Kd ([1]; exact Kd not determined, smeared band) was 10 pM.

In the case of “TCTGCAAGGGTTCAGCGTGGGCGGTAAG (double strand) [NZ site]”, the Kd ([1]; calculated from koff/kon, direct titration <1.0 pM, pH 7.0, 100 mM NaCl, 5 mM MgCl2, Zn) is reported as 0.0021 pM, the Kd ([2]; apparent Kd with 0.1 nM Zif268 prebound to neighboring site) is reported as 60 pM and the Kd ([2]; apparent Kd, NRE peptide alone) is reported as 180 pM.

“TCTGCAAGGGTTCAGTGCGTGGGCGGTAAG (double strand) [N//Z site]” showed a Kd ([1]; calculated from koff/kon, direct titration <1.0 pM) of 0.003 pM.

“AAGGGTTCA (double strand) [N site in luciferase reporter promoter]” was tested, and the activity (fold repression) [6] was 1.9.

— patent publication US6903185
